Our source for the self-cleavage values is the RNAGym collection of RNA variant scans (doi:10.7554/elife.90254).

B1: LINE1-mini (parent)
chain: GGCAGAGCUCAACACAGCGUGGCAAAGUGGCUGUGGCUAGACUGCC

This data set covers variants of B1. The experiment in a line: self-cleavage, relative activity (ratio to wild type); higher = more cleavage; in vitro, sequencing; the parent is a self-cleaving ribozyme.
Regarding GGCAGAGCUCAACACUGCGUGGCAAAGUGGCGGUGGCUAGACUGCC, the self-cleavage is 0.29.

For the variant GGCAGAGCUCAACACUGCGUGGCAAAGUGGCCGUGGCUAGACUGCC, the self-cleavage is 0.18.

With GGCAGAGCUCAACACUGCGUGGCAAAGUGGCAGUGGCUAGACUGCC, the self-cleavage was determined as 0.55.

For the variant GGCAGAGCUCAACACAACUUGGCAAAGUGGCUGUGGCUAGACUGCC, the self-cleavage was found to be 0.25.

Take GGCAGAGCUCAACACAACCUGGCAAAGUGGCUGUGGCUAGACUGCC: the self-cleavage came to 1.09.

Regarding GGCAGAGCUCAACACAACAUGGCAAAGUGGCUGUGGCUAGACUGCC, the self-cleavage was 0.62.

Consider GGCAGAGCUCAACACAACGUGGCAAAGUGGCUGUAGCUAGACUGCC, for which the self-cleavage stood at 0.04.

As for GGCAGAGCUCAACACAACGUGGCAAAGUGGCUGUCGCUAGACUGCC, the self-cleavage was 0.05.

In the case of GGCAGAGCUCAACACAACGUGGCAAAGUGGCUGUUGCUAGACUGCC, the self-cleavage amounted to 0.05.

Consider GGCAGAGCUCAACACAACGUGGCAAAGUGGCUGUGGCUCGACUGCC, for which the self-cleavage was determined as 0.07.

For GGCAGAGCUCAACACAACGUGGCAAAGUGGCUGUGGCUGGACUGCC, the self-cleavage is 0.06.

In the case of GGCAGAGCUCAACACAACGUGGCAAAGUGGCUGUGGCUUGACUGCC, the self-cleavage is 0.06.

Consider GGCAGAGCUCAACACAACGUGGCAAAGUGGCUGUGGCUAGAGUGCC, for which the self-cleavage was 0.12.

In the case of GGCAGAGCUCAACACAACGUGGCAAAGUGGCUGUGGCUAGAAUGCC, the self-cleavage turned out to be 0.07.

With GGCAGAGCUCAACACAACGUGGCAAAGUGGCUGUGGCUAGAUUGCC, the self-cleavage was 0.1.

Regarding GGCAGAGCUCAACACAACGUGGCAAAGUGGCUAUGGCUAGACUGCC, the self-cleavage was determined as 0.05.

Regarding GGCAGAGCUCAACACAACGUGGCAAAGUGGCUCUGGCUAGACUGCC, the self-cleavage is 0.04.

Turning to GGCAGAGCUCAACACAACGUGGCAAAGUGGCUUUGGCUAGACUGCC, the self-cleavage was 0.02.

GGCAGAGCUCAACACAACGUGGCAAAGUGGCUGUGGUUAGACUGCC: the self-cleavage was 0.05.

Regarding GGCAGAGCUCAACACAACGUGGCAAAGUGGCUGUGGAUAGACUGCC, the self-cleavage was found to be 0.05.

As to GGCAGAGCUCAACACAACGUGGCAAAGUGGCUGUGGGUAGACUGCC, the self-cleavage was 0.05.

For GGCAGAGCUCAACACAACGUGGCAAAGUGACUGUGGCUAGACUGCC, the self-cleavage came out at 0.57.

With GGCAGAGCUCAACACAACGUGGCAAAGUGUCUGUGGCUAGACUGCC, the self-cleavage came to 0.2.

Take GGCAGAGCUCAACACAACGUGGCAAAGUGCCUGUGGCUAGACUGCC: the self-cleavage came out at 0.83.

Turning to GGCAGAGCUCAACACAACGUGGGAAAGUGGCUGUGGCUAGACUGCC, the self-cleavage is 0.13.

In the case of GGCAGAGCUCAACACAACGUGGAAAAGUGGCUGUGGCUAGACUGCC, the self-cleavage amounted to 0.29.

GGCAGAGCUCAACACAACGUGGUAAAGUGGCUGUGGCUAGACUGCC: the self-cleavage came to 0.22.

For the variant GGCAGAGCUCAACACAACGUGGCAAAGUGGCUGUGGCUAGACUGAC, the self-cleavage was 0.13.

In the case of GGCAGAGCUCAACACAACGUGGCAAAGUGGCUGUGGCUAGACUGGC, the self-cleavage came out at 0.04.

For GGCAGAGCUCAACACAACGUGGCAAAGUGGCUGUGGCUAGACUGUC, the self-cleavage came to 0.25.

Consider GGCAGAGCUCAACACAACGUGGCAAUGUGGCUGUGGCUAGACUGCC, for which the self-cleavage is 0.21.

As for GGCAGAGCUCAACACAACGUGGCAAGGUGGCUGUGGCUAGACUGCC, the self-cleavage stood at 0.1.

For the variant GGCAGAGCUCAACACAACGUGGCAACGUGGCUGUGGCUAGACUGCC, the self-cleavage stood at 0.34.

Turning to GGCAGAGCUCAACACAAAGUGGCAAAGUGGCUGUGGCUAGACUGCC, the self-cleavage was 0.09.

Take GGCAGAGCUCAACACAAUGUGGCAAAGUGGCUGUGGCUAGACUGCC: the self-cleavage amounted to 0.14.

Regarding GGCAGAGCUCAACACAAGGUGGCAAAGUGGCUGUGGCUAGACUGCC, the self-cleavage was determined as 0.32.

As to GGCAGAGCUCAACACUGCGUGGCAAAGUGGCUGUCGCUAGACUGCC, the self-cleavage was determined as 0.07.

On to GGCAGAGCUCAACACUGCGUGGCAAAGUGGCUGUUGCUAGACUGCC, for which the self-cleavage was found to be 0.04.

As for GGCAGAGCUCAACACUGCGUGGCAAAGUGGCUGUAGCUAGACUGCC, the self-cleavage stood at 0.01.

On to GGCAGAGCUCAACACAACGUGGCAAAUUGGCUGUGGCUAGACUGCC, for which the self-cleavage amounted to 0.31.

Turning to GGCAGAGCUCAACACAACGUGGCAAAAUGGCUGUGGCUAGACUGCC, the self-cleavage came out at 0.42.

For GGCAGAGCUCAACACAACGUGGCAAACUGGCUGUGGCUAGACUGCC, the self-cleavage came to 0.19.

Regarding GGCAGAGCUCAACACAACGUGGCAAAGUGGCUGUGGCUAGACUGCA, the self-cleavage was 0.14.

As for GGCAGAGCUCAACACAACGUGGCAAAGUGGCUGUGGCUAGACUGCG, the self-cleavage is 0.12.

In the case of GGCAGAGCUCAACACAACGUGGCAAAGUGGCUGUGGCUAGACUGCU, the self-cleavage was 0.15.

On to GGCAGAGCUCAACACAACGUGGCAAAGUGGAUGUGGCUAGACUGCC, for which the self-cleavage came out at 0.13.

On to GGCAGAGCUCAACACAACGUGGCAAAGUGGGUGUGGCUAGACUGCC, for which the self-cleavage is 0.08.

With GGCAGAGCUCAACACAACGUGGCAAAGUGGUUGUGGCUAGACUGCC, the self-cleavage amounted to 0.35.

Consider GGCAGAGCUCAACACUGCGUGGCAAAGUGGCUGUGGCUAGACCGCC, for which the self-cleavage is 0.04.

In the case of GGCAGAGCUCAACACUGCGUGGCAAAGUGGCUGUGGCUAGACAGCC, the self-cleavage turned out to be 0.05.

With GGCAGAGCUCAACACUGCGUGGCAAAGUGGCUGUGGCUAGACGGCC, the self-cleavage amounted to 0.02.

With GGCAGAGCUCAACACUGCGUGGCAAAGUGGCUGUGGCUAGACUUCC, the self-cleavage is 0.03.

For GGCAGAGCUCAACACUGCGUGGCAAAGUGGCUGUGGCUAGACUACC, the self-cleavage was 0.05.

In the case of GGCAGAGCUCAACACUGCGUGGCAAAGUGGCUGUGGCUAGACUCCC, the self-cleavage was 0.03.

For GGCAGAGCUCAACACAACGUGGCAAAGGGGCUGUGGCUAGACUGCC, the self-cleavage came out at 0.1.

With GGCAGAGCUCAACACAACGUGGCAAAGCGGCUGUGGCUAGACUGCC, the self-cleavage was found to be 0.97.
